The text below walks through data of US20060024313A1 (published 2006).

The data set concerns the molecule itself. Put plainly: velocity AUC in PBS (self-association).

B1: DPP-IV H750E mutant (enzyme, human, UniProt P27487 39-766, looked up)
chain: SRKTYTLTDYLKNTYRLKLYSLRWISDHEYLYKQENNILVFNAEYGNSSVFLENSTFDEFGHSINDYSISPDGQFILLEYNYVKQWRHSYTASYDIYDLNKRQLITEERIPNNTQWVTWSPVGHKLAYVWNNDIYVKIEPNLPSYRITWTGKEDIIYNGITDWVYEEEVFSAYSALWWSPNGTFLAYAQFNDTEVPLIEYSFYSDESLQYPKTVRVPYPKAGAVNPTVKFFVVNTDSLSSVTNATSIQITAPASMLIGDHYLCDVTWATQERISLQWLRRIQNYSVMDICDYDESSGRWNCLVARQHIEMSTTGWVGRFRPSEPHFTLDGNSFYKIISNEEGYRHICYFQIDKKDCTFITKGTWEVIGIEALTSDYLYYISNEYKGMPGGRNLYKIQLSDYTKVTCLSCELNPERCQYYSVSFSKEAKYYQLRCSGPGLPLYTLHSSVNDKGLRVLEDNSALDKMLQNVQMPSKKLDFIILNETKFWYQMILPPHFDKSKKYPLLLDVYAGPCSQKADTVFRLNWATYLASTENIIVASFDGRGSGYQGDKIMHAINRRLGTFEVEDQIEAARQFSKMGFVDNKRIAIWGWSYGGYVTSMVLGSGSGVFKCGIAVAPVSRWEYYDSVYTERYMGLPTPEDNLDHYRNSTVMSRAENFKQVEYLLIHGTADDNVHFQQSAQISKALVDVGVDFQAMWYTDEDHGIASSTAHQEIYTHMSHFIKQCFSLP
notes: range 39-766; Monomeric by AUC
In the case of B1, the binding result is on record as “no binding (tested: 0.1 to 0.2 mg/ml (1.2 uM to 2.3 uM))”.
